Measurements taken from paper PMC3842537.

Key:
PDGF-BB = PDGF-BB (human, UniProt P01127 82-190); experiment: FAM fluorescence recovery on GO array
thrombin = thrombin (human, UniProt P00734;P00734 328-363;364-622); experiment: FAM fluorescence recovery on GO array

Sequence of PDGF-BB (P01127 82-190): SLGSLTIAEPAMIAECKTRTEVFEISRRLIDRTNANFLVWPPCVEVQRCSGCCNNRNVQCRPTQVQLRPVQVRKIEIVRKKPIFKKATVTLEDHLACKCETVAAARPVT

## CAGGCTACGGCACGTAGAGCATCACCATGATCCTG (structured_DNA) [PDGF aptamer]
PDGF-BB
  binding result: binds

## AGTCCGTGGTAGGGCAGGTTGGGGTGACT (structured_DNA) [thrombin aptamer (TASSET)]
thrombin
  binding result: binds
